# From patent US20260248947A1, “Methods of Treating Cancer Using Anti-HER2 Antibody-Drug Conjugates and HER2 Kinase Inhibitors” (Seagen Inc., priority 2023, published 2026)
# Tests used:
# [1] = test system: panel of breast cancer cell lines spanning a range of HER2 expression; assay: 96-hour CellTiterGlo cytotoxicity assay of DV, T-DM1 and T-DXd; type: cell-based
# Experimental: The following cell lines were cultured in the vendor-recommended conditions: breast cancer cell lines SK-BR-3, BT-474, UACC-893, HCC-202, JIMT-1, and BT-483. Cytotoxicity assays were performed using CellTiter-Glo (CTG) Luminescent Cell Viability assay (Promega Corporation) as per the manufacturer's protocol. Cells were seeded in 96-well plates and incubated overnight as previously described (1). […] Cells were then incubated at 37° C. in 5% CO2, and cell viability was measured at 96 hours after dosing.
# (§1) Internalization of anti-HER2 ADCs DV, T-DM1, and T-DXd (two HER2-targeting ADCs with trastuzumab as a backbone) was also tested in breast cancer cell lines SK-BR-3, HCC-202, and BT-483.
# [2] = test system: HCC-1954; assay: 144-hour CellTiter-Glo cytotoxicity assay, DV and T-DXd; type: cell-based; conditions: HCC-1954, 1,259,000 HER2 receptors/cell, 1-10,000 ng/mL
# Experimental: (§2) DV and T-DXd were evaluated against breast cancer cell lines spanning a range of HER2 expression levels (calculated by quantitative flow cytometry): HCC-1954 with 1,259,000 HER2 receptors/cell, MDA-MB-361 with 60,000 HER2 receptors/cell, and HCC-38 with 20,000 HER2 receptors/cell. Drugs were titrated (1-10,000 ng/mL), and viability was tested in a 144-hour CellTiter-Glo cytotoxicity assay.
# [3] = test system: HCC-38; assay: as above; type: cell-based; conditions: HCC-38, 20,000 HER2 receptors/cell, 1-10,000 ng/mL
# Experimental: as §2
# [4] = test system: MDA-MB-361; assay: as above; type: cell-based; conditions: MDA-MB-361, 60,000 HER2 receptors/cell, 1-10,000 ng/mL
# Experimental: as §2
# [5] = test system: gastric cancer PDX models; assay: Tumor volume in gastric cancer PDX models with variable HER2 expression; type: in vivo, Mice; conditions: in a majority of the six PDX models; DV 2 mg/kg intravenous single dose
# Source text: (§3) FIGS. […] show the effects of combining DV and tucatinib vs. DV as a single agent in gastric cancer patient-derived xenograft (PDX) models with varying HER2 expression levels: GA13745 (IHC 1+; FIGS. 12A, 12B), GA6821 (IHC 1+; FIGS. 12C, 12D), CTG-0148 (IHC 1+; FIGS. 12E, 12F), CTG-3036 (IHC 2+; FIGS. 12G, 12H), CTG-3033 (IHC 3+; FIGS. 12I, 12J), and GA3102 (IHC 3+; FIGS. 12K, 12L). Treatment with T-DXd, a HER2-directed ADC, was also included in the study. Tumor volume data shown as mean±SEM. For each model, tumor growth was evaluated using a normalized area under the curve (AUC) metric (see, Guo, S. et al. (2019) BMC Cancer 19, 718) (FIGS. 12A, 12C, 12E, 12G, 12I, 12K). AUC was calculated for each model for the duration of the experiment, then compared by one-way ANOVA followed by Tukey's post-hoc test. The box-and-whisker plots represent the median and range for each treatment group (FIGS. 12B, 12D, 12F, 12H, 12J, 12L). […]
# (§4) DV and tucatinib were tested as monotherapies and in combination in PDX models with varying HER2 expression levels. […] Mice (n=10/group) were treated with tucatinib (50 mg/kg oral, twice daily), DV (2 mg/kg, intravenous, single dose), a combination of tucatinib and DV, or T-DXd (2 mg/kg, intravenous, single dose), and tumor volume was measured over time.
# [6] = test system: GA3102 (IHC 3+) gastric cancer PDX; assay: Tumor volume / normalized AUC in gastric cancer PDX model; type: in vivo, Mice; conditions: GA3102 (FIGS. 12K, 12L); tucatinib 50 mg/kg oral twice daily, DV 2 mg/kg intravenous single dose
# Source text: as §3, §4
# [7] = test system: GA6821 (IHC 1+) gastric cancer PDX; assay: as above; type: in vivo, Mice; conditions: GA6821 (FIGS. 12C, 12D); tucatinib 50 mg/kg oral twice daily, DV 2 mg/kg intravenous single dose
# Source text: as §3, §4
# [8] = molecular target: HER2 (Homo sapiens, UniProt P04626); assay: Internalization of anti-HER2 ADCs DV, T-DM1 and T-DXd; type: cell-based; set-up: endogenous in cells; host or cells: SK-BR-3, BT-474, HCC-202, EFM-192C, BT-483, CAMA-1, NCI-N87, OE19, RERF-GC-1B; conditions: results considered preliminary
# Experimental: The internalization experiments were conducted by detecting an antibody-bound pH sensitive probe using automated time-lapse microscopy. Briefly, breast cancer cell lines SK-BR-3, BT-474, HCC-202, EFM-192C, BT-483, and CAMA-1 and gastric cancer cell lines NCI-N87, OE19, and RERF-GC-1B were seeded in 96-well flat clear-bottom black tissue culture-treated microplates (Corning, cat #3603). Cells were plated at 1.5×10^4-2.5×10^4 cells/200 μL/well in growth medium and allowed to adhere overnight at 37° C. Disitamab, trastuzumab, and isotype control antibody (human IgG) were labeled with IncuCyte Fabfluor-pH Red Antibody Labeling Reagent (Essen Bioscience, cat #4722) according to the manufacturer's protocol. Volumes of the test antibodies, Fabfluor reagent and medium required were calculated at 2× the final assay concentration, and the Fabfluor reagent was added at a molar ratio of 1:3 to the antibody. Fabfluor dye fluoresces only upon exposure to an acidified compartment, namely endocytic vesicles and lysosomes, signifying internalization and intracellular processing of the ADC. Antibody and Fabfluor were mixed gently and incubated at 37° C. for 15 minutes. Media containing Fabfluor-labeled disitamab or trastuzumab ([…] final concentration) was added to cells. The plates were arranged on microplate trays in the IncuCyte SX3 system (Essen Bioscience), and scans were acquired using the Standard protocol. Phase data and red channel data (acquisition time set to 400 ms) were collected, with 4 images per well every 30 minutes for the first 6 hours and every 2 hours after that for up to 40 hours with the objective set at 10×. Quantification of fluorescence signal intensity was performed using the IncuCyte software analysis tool.
# as §1
substance,measurement,setting,value
disitamab vedotin [DV],IC50 compared with the IC50 for T-DM1 and T-DXd,[1]; for each cell line of the panel,lower
same,in vitro cytotoxic activity against the panel of breast cancer cell lines,"[1]; variable HER2 expression, including HER2-low range, 0.01-10,000 ng/mL",in vitro cytotoxic activity
same,single-agent cytotoxic activity as compared to T-DXd,[2],more potent single-agent cytotoxic activity
same,single-agent cytotoxic activity as compared to T-DXd,[3],more potent single-agent cytotoxic activity
same,single-agent cytotoxic activity as compared to T-DXd,[4],more potent single-agent cytotoxic activity
same,anti-tumor activity of DV monotherapy,[5],anti-tumor activity
same,anti-tumor activity compared to untreated control (normalized AUC tumor growth metric),[6],significant anti-tumor activity
same,anti-tumor activity compared to untreated control (normalized AUC tumor growth metric),[7],significant anti-tumor activity
same,internalization compared to T-DM1 and T-DXd,[8]; BT-483,enhanced internalization
same,internalization compared to T-DM1 and T-DXd,[8]; HCC-202,enhanced internalization
same,internalization compared to T-DM1 and T-DXd,[8]; SK-BR-3,enhanced internalization
